This passage reports stoichiometry N, other: multiple (oligomer MW over monomer MW) and other: oligomer MW (SEC-MALS) results from paper PMC10554743.

For test [1], the target named is McdB CC + CTD truncation (Synechococcus elongatus PCC 7942). As to the kind of experiment: SEC-MALS; Shodex PROTEIN KW-804; 50 µl at 1.5 mg/ml; 150 mM KCl, 20 mM Tris-HCl pH 8.2; BSA as calibration standard. A general note: Size exclusion chromatography separates by hydrodynamic size, large species first.
The target in test [2] is McdB CC domain truncation (Synechococcus elongatus PCC 7942). The test is described as above.
Test [3] has as its target McdB IDR + CC truncation (Synechococcus elongatus PCC 7942). The test is described as above.
The target of test [4] is McdB with all six basic residues of the IDR substituted to glutamines (Synechococcus elongatus PCC 7942). Described as above.
In test [5] the target is Se7942 McdB (full-length, wild type) (Synechococcus elongatus PCC 7942). Described as above.
For another test, the target named is McdB CTD 2Q left. The test is described as follows: SEC-MALS.
Test [6] has as its target McdB with four glutamine substitutions in the CTD. The test is described as follows: SEC-MALS.
For test [7] the target is unchanged. As to the kind of experiment: SEC-MALS. This is another data set of the same source.
In test [8] the target is McdB with all six basic residues of the IDR substituted to glutamines. As to the kind of experiment: SEC-MALS.

“McdB CC + CTD truncation (domain or fragment)”: in [1], the stoichiometry N came out at 6. Substance “McdB CC domain truncation (domain or fragment)” displayed a stoichiometry N in test [2] of 2.

Regarding “McdB IDR + CC truncation (domain or fragment)”, the stoichiometry N in [3] came to 2.

In the case of “McdB with all six basic residues of the IDR substituted to glutamines (natural protein)”, the stoichiometry N in [4] came out at 6. Turning to “Se7942 McdB (full-length, wild type) (natural protein)”, the stoichiometry N in test [5] was 6.

As for “Se7942 McdB (full-length, wild type) CTD 2Q left: … -> … (E->Q, E->Q at segment positions 1, 2)”, in the test with McdB CTD 2Q left (parent: 5.5), the other: multiple (oligomer MW over monomer MW) is 4.5 x. The other: oligomer MW (SEC-MALS) in the test with McdB CTD 2Q left (parent: 96.4) stood at 77.8 kDa. “Se7942 McdB (full-length, wild type) CTD all: … -> … (E->Q, E->Q, E->Q, D->Q at segment positions 1, 2, 9, 11)”: the other: multiple (oligomer MW over monomer MW) in test [6] (parent: 5.5) and in test [7] (parent: 5.5) was 1.8 x throughout. Also, the other: oligomer MW (SEC-MALS) in test [6] (parent: 96.4) and in test [7] (parent: 96.4) was 31.8 kDa throughout. On to “Se7942 McdB (full-length, wild type) R7Q; K9Q; K10Q; R11Q; R13Q; R18Q”, for which, in test [8] (parent: 5.5), the other: multiple (oligomer MW over monomer MW) is 5.6 x. The other: oligomer MW (SEC-MALS) in test [8] (parent: 96.4) was 96.1 kDa.

Usually stoichiometry N stands for the number of molecules, sites or subunits per partner or assembly.
